Data: article PMC7515705

Biological target: T1, YBEY-3 × FLAG (human), P58557
T1 chain: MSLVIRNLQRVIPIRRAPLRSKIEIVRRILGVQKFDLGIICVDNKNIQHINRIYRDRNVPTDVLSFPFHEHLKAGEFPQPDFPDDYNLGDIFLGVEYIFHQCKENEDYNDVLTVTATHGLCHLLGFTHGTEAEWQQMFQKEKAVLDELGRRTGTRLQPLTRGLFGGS
Assay: affinity purification with mass spectrometry; α-FLAG antibody and protein A-sepharose on mitochondrial lysates (0.5% n-dodecyl-β-D-maltoside, 20 mM Tris-HCl pH 7.5, 150 mM KCl, 4°C) of SAL001 cells expressing YBEY-3 × FLAG; parental Flp-In T-REx 293 as control; LC-MS/MS, spectral counts; YBEY:p32 stoichiometry from spectral abundance factors
Conditions: remark: other sources report otherwise

B1: p32/C1QBP, endogenous, Q07021 74-282 (natural protein)
chain: LHTDGDKAFVDFLSDEIKEERKIQKHKTLPKMSGGWELELNGTEAKLVRKVAGEKITVTFNINNSIPPTFDGEEEPSQGQKVEEQEPELTSTPNFVVEVIKNDDGKKALVLDCHYPEDEVGQEDEAESDIFSIREVSFQSTGESEWKDTNYTLNTDSLDWALYDHLMDFLADRGVDNTFADELVELSTALEHQEYITFLEDLKSFVKSQ
B1 was tested, and the stoichiometry N was 1.
